Data reported in patent US20120207670A1.

Target: IL-12 (mouse; target of the rat anti-mouse antibodies in the in vitro neutralization studies) (mouse) (UniProt P43432)
Experiment: cell-based or functional assay

IL-12 (mouse; target of the rat anti-mouse antibodies in the in vitro neutralization studies) (mouse), sequence (P43432 23-335, chain 1 of 2): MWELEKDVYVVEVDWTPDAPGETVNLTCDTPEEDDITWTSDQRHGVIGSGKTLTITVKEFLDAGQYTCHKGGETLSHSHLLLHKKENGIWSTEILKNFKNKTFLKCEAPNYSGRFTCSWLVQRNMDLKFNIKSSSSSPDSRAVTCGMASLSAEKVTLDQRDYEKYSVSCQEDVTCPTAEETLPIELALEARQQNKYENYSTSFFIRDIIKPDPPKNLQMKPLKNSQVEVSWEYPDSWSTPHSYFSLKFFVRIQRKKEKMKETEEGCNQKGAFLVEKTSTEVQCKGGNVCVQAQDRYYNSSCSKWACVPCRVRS
IL-12 (mouse; target of the rat anti-mouse antibodies in the in vitro neutralization studies) (mouse), sequence (P43431 23-215, chain 2 of 2, further chain): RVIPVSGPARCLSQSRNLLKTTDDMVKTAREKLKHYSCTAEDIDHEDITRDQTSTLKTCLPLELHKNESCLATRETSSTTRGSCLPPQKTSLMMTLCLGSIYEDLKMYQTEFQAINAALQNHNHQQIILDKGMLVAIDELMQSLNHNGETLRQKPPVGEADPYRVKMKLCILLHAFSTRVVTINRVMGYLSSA

in vitro neutralization of IL-12 (fold (against anti-p35 mAb C18.2)): 5
Substance: C17.8 (rat anti-mouse IL-12/IL-23p40, IgG2a) (antibody)
